Data set [1] concerns the molecule itself. Briefly: cryo-EM structure; helical reconstruction of amyloid fibrils formed at pH 7.5, 300 mM NaCl; single protofilament, cross-beta stacking of subunits; 2.5 Å.
A further data set addresses T1, hnRNPDL-2 (soluble) (human, UniProt O14979-2 1-301).
T1 sequence: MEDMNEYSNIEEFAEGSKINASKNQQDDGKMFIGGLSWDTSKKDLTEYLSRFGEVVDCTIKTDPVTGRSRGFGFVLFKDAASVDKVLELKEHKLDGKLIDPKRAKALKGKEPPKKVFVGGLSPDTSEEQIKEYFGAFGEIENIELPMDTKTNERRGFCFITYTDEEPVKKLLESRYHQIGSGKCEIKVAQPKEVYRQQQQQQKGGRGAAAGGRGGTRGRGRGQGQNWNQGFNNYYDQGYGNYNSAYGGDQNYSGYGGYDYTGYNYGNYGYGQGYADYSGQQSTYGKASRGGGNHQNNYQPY
In words: EMSA; apparent Kd, Hill fit; 50 nM probe; EMSA: 10 ul, 50 nM probe, 24 h at RT, 8% polyacrylamide gel, buffer not stated; fibril binding: 24 h at RT, spin 16,000 x g at 4 C, pellet wash 50 mM HEPES pH 7.5, 150 mM NaCl. The following applies: protein: recombinant; tags: N-terminal His-SUMO (expression construct); label: fluorescein, printed at 5' side (F-); FITC in peer review file; single strand, 7-mer.

B1: hnRNPDL-2 (human heterogeneous ribonucleoprotein D-like, isoform 2), wild type (natural protein, UniProt O14979-2 1-301, looked up)
chain: MEDMNEYSNIEEFAEGSKINASKNQQDDGKMFIGGLSWDTSKKDLTEYLSRFGEVVDCTIKTDPVTGRSRGFGFVLFKDAASVDKVLELKEHKLDGKLIDPKRAKALKGKEPPKKVFVGGLSPDTSEEQIKEYFGAFGEIENIELPMDTKTNERRGFCFITYTDEEPVKKLLESRYHQIGSGKCEIKVAQPKEVYRQQQQQQKGGRGAAAGGRGGTRGRGRGQGQNWNQGFNNYYDQGYGNYNSAYGGDQNYSGYGGYDYTGYNYGNYGYGQGYADYSGQQSTYGKASRGGGNHQNNYQPY
notes: Heterogeneous nuclear ribonucleoprotein D-like, human, isoform hnRNPDL-2 of 301 residues (RRM1, RRM2, C-terminal Y/G-rich LCD ~201-285, PY-NLS 281-301; exon 6 = residues 224-280). numbers count on: hnRNPDL-2 (the 301-residue isoform); Cloned in pETite with a His-SUMO N-terminal tag; In the fibril the subunits stack in a single protofilament; also called WT hnRNPDL-2; full-length hnRNPDL-2; …
In the case of B1, in data set [1], the binding result was “binds”.

B2: F-RNA (F-GACUAGC) (ssRNA)
RNA: GACUAGC
Take B2: in the data set with hnRNPDL-2 (soluble), the Kd turned out to be 22.8 ± 3.95 µM.
